In US10941182 (Amgen, dated 2021):
Starred links: 1 amine or outer side, 2 acyl side, 3 side chain; linkers in the order of their positions; H or OH if unused. Non-standard residues stand in square brackets, D forms with d. Primed or numbered codes have the meaning given here. *: point of attachment. AC4Abu = α-carboxy-4-aminobutyric acid, O=C(C(CCN[*:1])C(=O)[*:3])[*:2]; Oic = O=C(O)[C@@H]1C[C@@H]2CCCC[C@@H]2N1; Phe(4-Cl) = N[C@@H](Cc1ccc(Cl)cc1)C(=O)O; γGlu = O=C(O)[C@H](CCC(=O)[*:2])N[*:1]; d(β3hF) = N[C@@H](CC(=O)O)Cc1ccccc1; NMeR = CN[C@@H](CCCNC(=N)N)C(=O)O; Palmitoyl = CCCCCCCCCCCCCCCC(=O)*; αMeF = C[C@](N)(Cc1ccccc1)C(=O)O; Tic = O=C(O)[C@@H]1Cc2ccccc2CN1; dTic = O=C(O)[C@H]1Cc2ccccc2CN1; β3hF = N[C@H](CC(=O)O)Cc1ccccc1; Cha = N[C@@H](CC1CCCCC1)C(=O)O; Aic = NC1(C(=O)O)Cc2ccccc2C1; αMeP = C[C@@]1(C(=O)O)CCCN1; β3hP = O=C(O)C[C@@H]1CCCN1; Pip = O=C(O)[C@@H]1CCCCN1; Nle = CCCC[C@H](N)C(=O)O; Pip′ = not defined here; AEEA = NCCOCCOCC(=O)O; Aib = CC(C)(N)C(=O)O; Inp = O=C(O)C1CCNCC1; Nip = nipecotic acid

T1: rat APJ receptor (rat, UniProt Q9JHG3 1-377)
T1 sequence (looked up): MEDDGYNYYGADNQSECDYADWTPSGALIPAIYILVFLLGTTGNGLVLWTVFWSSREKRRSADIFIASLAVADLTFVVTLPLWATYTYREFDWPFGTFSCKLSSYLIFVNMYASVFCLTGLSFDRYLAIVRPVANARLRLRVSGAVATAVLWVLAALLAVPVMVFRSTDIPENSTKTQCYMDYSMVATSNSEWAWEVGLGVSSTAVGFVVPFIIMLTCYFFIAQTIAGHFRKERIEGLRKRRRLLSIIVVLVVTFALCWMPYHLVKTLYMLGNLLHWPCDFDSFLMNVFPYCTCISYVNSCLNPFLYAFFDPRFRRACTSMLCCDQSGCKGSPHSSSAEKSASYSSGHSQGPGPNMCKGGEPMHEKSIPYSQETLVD

T2: human APJ receptor (human, UniProt P35414 1-380)
T2 sequence (looked up): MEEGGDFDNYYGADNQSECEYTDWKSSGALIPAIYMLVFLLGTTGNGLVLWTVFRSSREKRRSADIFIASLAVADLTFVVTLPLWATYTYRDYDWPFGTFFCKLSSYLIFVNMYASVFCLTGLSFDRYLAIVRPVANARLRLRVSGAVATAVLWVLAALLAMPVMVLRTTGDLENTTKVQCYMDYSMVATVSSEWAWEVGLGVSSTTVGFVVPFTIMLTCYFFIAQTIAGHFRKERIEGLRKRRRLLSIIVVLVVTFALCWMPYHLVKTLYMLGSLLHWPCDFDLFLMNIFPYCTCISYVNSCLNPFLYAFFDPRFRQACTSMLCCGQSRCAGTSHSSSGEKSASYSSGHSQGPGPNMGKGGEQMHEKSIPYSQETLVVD


How the values were obtained:
rat APJ receptor = molecular target: T1, rat APJ receptor; test: cell-based or functional assay
human APJ receptor = molecular target: T2, human APJ receptor; test: cell-based or functional assay

Binder	EC50 Rat APJ Receptor (rat APJ receptor) [nM]	EC50 Human APJ Receptor (human APJ receptor) [nM]
Palmitoyl-[AC4Abu][AEEA][AEEA][dQ]RP[NMeR][Cha]SHKG[Pip][Nle][Aic]-OH (SMILES CCCCCCCCCCCCCCCC(=O)NCCC(C(=O)O)C(=O)NCCOCCOCC(=O)NCCOCCOCC(=O)N[C@H](CCC(N)=O)C(=O)N[C@@H](CCCNC(=N)N)C(=O)N1CCC[C@H]1C(=O)N(C)[C@@H](CCCNC(=N)N)C(=O)N[C@@H](CC1CCCCC1)C(=O)N[C@@H](CO)C(=O)N[C@@H](Cc1c[nH]cn1)C(=O)N[C@@H](CCCCN)C(=O)NCC(=O)N1CCCC[C@H]1C(=O)N[C@@H](CCCC)C(=O)NC1(C(=O)O)Cc2ccccc2C1) [SEQ ID NO: 597]	3.37	0.885
Palmitoyl-[AC4Abu][AEEA][AEEA]QRP[NMeR][Cha]SHKG[Pip][Nle][Inp][Phe(4-Cl)]-OH (SMILES CCCCCCCCCCCCCCCC(=O)NCCC(C(=O)O)C(=O)NCCOCCOCC(=O)NCCOCCOCC(=O)N[C@@H](CCC(N)=O)C(=O)N[C@@H](CCCNC(=N)N)C(=O)N1CCC[C@H]1C(=O)N(C)[C@@H](CCCNC(=N)N)C(=O)N[C@@H](CC1CCCCC1)C(=O)N[C@@H](CO)C(=O)N[C@@H](Cc1c[nH]cn1)C(=O)N[C@@H](CCCCN)C(=O)NCC(=O)N1CCCC[C@H]1C(=O)N[C@@H](CCCC)C(=O)N1CCC(C(=O)N[C@@H](Cc2ccc(Cl)cc2)C(=O)O)CC1) [SEQ ID NO: 589]	4.15	0.624
Palmitoyl-[AC4Abu][AEEA][AEEA][dQ]RP[NMeR][Cha]SHKG[Pip][Aib][Phe(4-Cl)]-OH (SMILES CCCCCCCCCCCCCCCC(=O)NCCC(C(=O)O)C(=O)NCCOCCOCC(=O)NCCOCCOCC(=O)N[C@H](CCC(N)=O)C(=O)N[C@@H](CCCNC(=N)N)C(=O)N1CCC[C@H]1C(=O)N(C)[C@@H](CCCNC(=N)N)C(=O)N[C@@H](CC1CCCCC1)C(=O)N[C@@H](CO)C(=O)N[C@@H](Cc1c[nH]cn1)C(=O)N[C@@H](CCCCN)C(=O)NCC(=O)N1CCCC[C@H]1C(=O)NC(C)(C)C(=O)N[C@@H](Cc1ccc(Cl)cc1)C(=O)O) [SEQ ID NO: 581]	5.85	1.4
Palmitoyl-[AC4Abu][AEEA][AEEA][dQ]RP[NMeR][Cha]SHKG[Pip][Nle][Nip][Phe(4-Cl)]-OH [SEQ ID NO: 588]	6.37	1.52
Palmitoyl-[γGlu][AEEA][AEEA][dQ]RP[NMeR][Cha]SHKG[Oic][Nle][αMeP][αMeF]-OH (SMILES CCCCCCCCCCCCCCCC(=O)N[C@@H](CCC(=O)NCCOCCOCC(=O)NCCOCCOCC(=O)N[C@H](CCC(N)=O)C(=O)N[C@@H](CCCNC(=N)N)C(=O)N1CCC[C@H]1C(=O)N(C)[C@@H](CCCNC(=N)N)C(=O)N[C@@H](CC1CCCCC1)C(=O)N[C@@H](CO)C(=O)N[C@@H](Cc1c[nH]cn1)C(=O)N[C@@H](CCCCN)C(=O)NCC(=O)N1[C@H](C(=O)N[C@@H](CCCC)C(=O)N2CCC[C@@]2(C)C(=O)N[C@@](C)(Cc2ccccc2)C(=O)O)C[C@@H]2CCCC[C@@H]21)C(=O)O) [SEQ ID NO: 610]	4.98	1.06
Palmitoyl-[AC4Abu][AEEA][AEEA][dQ]RP[NMeR][Cha]SHKG[Pip][Nle][β3hF]-OH (SMILES CCCCCCCCCCCCCCCC(=O)NCCC(C(=O)O)C(=O)NCCOCCOCC(=O)NCCOCCOCC(=O)N[C@H](CCC(N)=O)C(=O)N[C@@H](CCCNC(=N)N)C(=O)N1CCC[C@H]1C(=O)N(C)[C@@H](CCCNC(=N)N)C(=O)N[C@@H](CC1CCCCC1)C(=O)N[C@@H](CO)C(=O)N[C@@H](Cc1c[nH]cn1)C(=O)N[C@@H](CCCCN)C(=O)NCC(=O)N1CCCC[C@H]1C(=O)N[C@@H](CCCC)C(=O)N[C@H](CC(=O)O)Cc1ccccc1) [SEQ ID NO: 579]	2.5	0.831
Palmitoyl-[AC4Abu][AEEA][AEEA][dQ]RP[NMeR][Cha]SHKG[Pip][Nle]P[Tic]-OH (SMILES CCCCCCCCCCCCCCCC(=O)NCCC(C(=O)O)C(=O)NCCOCCOCC(=O)NCCOCCOCC(=O)N[C@H](CCC(N)=O)C(=O)N[C@@H](CCCNC(=N)N)C(=O)N1CCC[C@H]1C(=O)N(C)[C@@H](CCCNC(=N)N)C(=O)N[C@@H](CC1CCCCC1)C(=O)N[C@@H](CO)C(=O)N[C@@H](Cc1c[nH]cn1)C(=O)N[C@@H](CCCCN)C(=O)NCC(=O)N1CCCC[C@H]1C(=O)N[C@@H](CCCC)C(=O)N1CCC[C@H]1C(=O)N1Cc2ccccc2C[C@H]1C(=O)O) [SEQ ID NO: 598]	2.84	0.463
Palmitoyl-[AC4Abu][AEEA][AEEA][dQ]RP[NMeR][Cha]SHKG[Pip][Nle]P[dTic]-OH (SMILES CCCCCCCCCCCCCCCC(=O)NCCC(C(=O)O)C(=O)NCCOCCOCC(=O)NCCOCCOCC(=O)N[C@H](CCC(N)=O)C(=O)N[C@@H](CCCNC(=N)N)C(=O)N1CCC[C@H]1C(=O)N(C)[C@@H](CCCNC(=N)N)C(=O)N[C@@H](CC1CCCCC1)C(=O)N[C@@H](CO)C(=O)N[C@@H](Cc1c[nH]cn1)C(=O)N[C@@H](CCCCN)C(=O)NCC(=O)N1CCCC[C@H]1C(=O)N[C@@H](CCCC)C(=O)N1CCC[C@H]1C(=O)N1Cc2ccccc2C[C@@H]1C(=O)O) [SEQ ID NO: 599]	1.01	0.44
Palmitoyl-[γGlu][AEEA][AEEA][dQ]RP[NMeR][Cha]SHKG[Oic][Nle][β3hP][dAMF]-OH [SEQ ID NO: 612]	4.62	1.72
Palmitoyl-[AC4Abu][AEEA][AEEA][dQ]RP[NMeR][Cha]SHKG[Pip′][Nle]P[d(β3hF)]-OH [SEQ ID NO: 568]	4.55	2.97
Palmitoyl-[AC4Abu][AEEA][AEEA][dQ]RP[NMeR][Cha]SHKG[Pip][Nle]P[Aic]-OH (SMILES CCCCCCCCCCCCCCCC(=O)NCCC(C(=O)O)C(=O)NCCOCCOCC(=O)NCCOCCOCC(=O)N[C@H](CCC(N)=O)C(=O)N[C@@H](CCCNC(=N)N)C(=O)N1CCC[C@H]1C(=O)N(C)[C@@H](CCCNC(=N)N)C(=O)N[C@@H](CC1CCCCC1)C(=O)N[C@@H](CO)C(=O)N[C@@H](Cc1c[nH]cn1)C(=O)N[C@@H](CCCCN)C(=O)NCC(=O)N1CCCC[C@H]1C(=O)N[C@@H](CCCC)C(=O)N1CCC[C@H]1C(=O)NC1(C(=O)O)Cc2ccccc2C1) [SEQ ID NO: 590]	6.2	0.816
Palmitoyl-[γGlu][AEEA][AEEA][dQ]RP[NMeR][Cha]S[dH]KG[Oic][Nle][β3hP][d(β3hF)]-OH (SMILES CCCCCCCCCCCCCCCC(=O)N[C@@H](CCC(=O)NCCOCCOCC(=O)NCCOCCOCC(=O)N[C@H](CCC(N)=O)C(=O)N[C@@H](CCCNC(=N)N)C(=O)N1CCC[C@H]1C(=O)N(C)[C@@H](CCCNC(=N)N)C(=O)N[C@@H](CC1CCCCC1)C(=O)N[C@@H](CO)C(=O)N[C@H](Cc1c[nH]cn1)C(=O)N[C@@H](CCCCN)C(=O)NCC(=O)N1[C@H](C(=O)N[C@@H](CCCC)C(=O)N2CCC[C@H]2CC(=O)N[C@@H](CC(=O)O)Cc2ccccc2)C[C@@H]2CCCC[C@@H]21)C(=O)O) [SEQ ID NO: 617]	25.8	8.68
Palmitoyl-[AC4Abu][AEEA][AEEA][dQ]RP[NMeR][Cha]SHKG[Pip′][Nle][d(β3hF)]-OH [SEQ ID NO: 574]	2.83	0.652
Palmitoyl-[γGlu][AEEA][AEEA][dQ]RP[NMeR][Cha]SHKG[Oic][Nle][β3hP][αMeF]-OH (SMILES CCCCCCCCCCCCCCCC(=O)N[C@@H](CCC(=O)NCCOCCOCC(=O)NCCOCCOCC(=O)N[C@H](CCC(N)=O)C(=O)N[C@@H](CCCNC(=N)N)C(=O)N1CCC[C@H]1C(=O)N(C)[C@@H](CCCNC(=N)N)C(=O)N[C@@H](CC1CCCCC1)C(=O)N[C@@H](CO)C(=O)N[C@@H](Cc1c[nH]cn1)C(=O)N[C@@H](CCCCN)C(=O)NCC(=O)N1[C@H](C(=O)N[C@@H](CCCC)C(=O)N2CCC[C@H]2CC(=O)N[C@@](C)(Cc2ccccc2)C(=O)O)C[C@@H]2CCCC[C@@H]21)C(=O)O) [SEQ ID NO: 611]	1.57	0.722
